The source of these data is publication PMC2954210, “Structure of an essential bacterial protein YeaZ (TM0874) from Thermotoga maritima at 2.5 Å resolution” (Acta Crystallographica Section F: Structural Biology and …, 2009).

One may read the stoichiometry N as the number of molecules, sites or subunits per partner or assembly.

This data set concerns the molecule itself. The data set is described as follows: SEC-MALS; Superdex 200 column coupled with miniDAWN static light-scattering and Optilab refractive-index detectors; 20 mM Tris-HCl pH 7.9, 150 mM NaCl, 0.02% sodium azide. For orientation: In gel filtration, larger molecules generally elute earlier.

B1: YeaZ (TM0874) from Thermotoga maritima (natural protein, UniProt Q9WZX7 1-206, looked up)
chain: MNVLALDTSQRIRIGLRKGEDLFEISYTGEKKHAEILPVVVKKLLDELDLKVKDLDVVGVGIGPGGLTGLRVGIATVVGLVSPYDIPVAPLNSFEMTAKSCPADGVVLVARRARKGYHYCAVYLKDKGLNPLKEPSVVSDEELEEITKEFSPKIVLKDDLLISPAVLVEESERLFREKKTIHYYEIEPLYLQKSIAELNWEKKKRG
modifications: selenomethionine derivative
notes: YeaZ (TM0874), Thermotoga maritima, full-length protein, residues 1-206; Swiss-Prot Q9WZX7; Cloned into plasmid pMH4; In the crystal model residues 1-193 (chain A) and 0-187 (chain B) are ordered; residue 0 is the last residue of the His tag; also called TmYeaZ; His-tagged SeMet-TmYeaZ; source: E. coli GeneHogs, selenomethionine-containing medium, purified (nickel-chelating resin, Resource Q)
Take B1: the “stoichiometry N” value was found to be 2.
